Data on two proteins can be found in paper PMC10705477 (bioRxiv, 2023).

The series “cryo-EM structure” deals with the molecule itself. Kind of series: cryo-EM structure.
Series [1] deals with the molecule itself. The series can be described thus: co-purification on an anion-exchange column.

Numbering of substitutions follows the chain as printed. Names may count otherwise.

B1: γ protein of the E. coli clamp loader, truncated form (residues 1–373) (domain or fragment)
chain: MSYQVLARKWRPQTFADVVGQEHVLTALANGLSLGRIHHAYLFSGTRGVGKTSIARLLAKGLNCETGITATPCGVCDNCREIEQGRFVDLIEIDAASRTKVEDTRDLLDNVQYAPARGRFKVYLIDEVHMLSRHSFNALLKTLEEPPEHVKFLLATTDPQKLPVTILSRCLQFHLKALDVEQIRHQLEHILNEEHIAHEPRALQLLARAAEGSLRDALSLTDQAIASGDGQVSTQAVSAMLGTLDDDQALSLVEAMVEANGERVMALINEAAARGIEWEALLVEMLGLLHRIAMVQLSPAALGNDMAAIELRMRELARTIPPTDIQLYYQTLLIGRKELPYAPDRRMGVEMTLLRALAFHPRMPLPEPEVPRQ
B1: in the series “cryo-EM structure”, the binding result is “binds”.

B2: γ-K141A (domain or fragment)
chain: B1 chain with K141A
Take B2: in series [1], the binding result is “binds”.
